Laboratory results reported in article doi:10.1101/183848.

Molecular target: ATP binding cassette protein E1 (ABCE1), endogenous in 293T/17 cells (human (endogenous in 293T/17)) (UniProt P61221)
Assay: proximity ligation

**Q.** How did the Gag-ABCE1 PLA spots per cell (PLA spots per cell) turn out when “FIV Gag, wild type, expressed from the FIV pro- env- provirus (natural protein)” was run?
**A.** 34.9
